The text below walks through data of IntAct's records for PubMed 10512882.

Sequences and labels used below:
B1: Focal adhesion kinase 1 (Gallus gallus (Chicken)), Q00944 (parent)
chain: MAAAYLDPNLNHTPSSSAKTHLGTGMERSPGAMERVLKVFHYFENSSEPTTWASIIRHGDATDVRGIIQKIVDCHKVKNVACYGLRLSHLQSEEVHWLHLDMGVSNVREKFELAHPPEEWKYELRIRYLPKGFLNQFTEDKPTLNFFYQQVKNDYMLEIADQVDQEIALKLGCLEIRRSYGEMRGNALEKKSNYEVLEKDVGLRRFFPKSLLDSVKAKTLRKLIQQTFRQFANLNREESILKFFEILSPVYRFDKECFKCALGSSWIISVELAIGPEEGISYLTDKGANPTHLADFNQVQTIQYSNSEDKDRKGMLQLKIAGAPEPLTVTAPSLTIAENMADLIDGYCRLVNGATQSFIIRPQKEGERALPSIPKLANNEKQGVRSHTVSVSETDDYAEIIDEEDTYTMPSTRDYEIQRERIELGRCIGEGQFGDVHQGIYMSPENPAMAVAIKTCKNCTSDSVREKFLQEALTMRQFDHPHIVKLIGVITENPVWIIMELCTLGELRSFLQVRKFSLDLASLILYAYQLSTALAYLESKRFVHRDIAARNVLVSATDCVKLGDFGLSRYMEDSTYYKASKGKLPIKWMAPESINFRRFTSASDVWMFGVCMWEILMHGVKPFQGVKNNDVIGRIENGERLPMPPNCPPTLYSLMTKCWAYDPSRRPRFTELKAQLSTILEEEKLQQEERMRMESRRQVTVSWDSGGSDEAPPKPSRPGYPSPRSSEGFYPSPQHMVQPNHYQVSGYSGSHGIPAMAGSIYPGQASLLDQTDSWNHRPQEVSAWQPNMEDSGTLDVRGMGQVLPTHLMEERLIRQQQEMEEDQRWLEKEERFLVMKPDVRLSRGSIEREDGGLQGPAGNQHIYQPVGKPDHAAPPKKPPRPGAPHLGSLASLNSPVDSYNEGVKIKPQEISPPPTANLDRSNDKVYENVTGLVKAVIEMSSKIQPAPPEEYVPMVKEVGLALRTLLATVDESLPVLPASTHREIEMAQKLLNSDLAELINKMKLAQQYVMTSLQQEYKKQMLTAAHALAVDAKNLLDVIDQARLKMISQSRPH

Variants of B1 are the subject of the assay. As to conditions: with src_chick SRC.
Consider K454R, for which the “effect of a mutation on the interaction” value is “decreasing interaction”.

In the case of Y576F;Y577F, the “effect of a mutation on the interaction” value is listed as “decreasing interaction”.

Consider Y397F, for which the “effect of a mutation on the interaction” value is reported as “disrupting interaction”.

In the case of Y397F;K454R, the “effect of a mutation on the interaction” value is reported as “disrupting interaction”.
